Assay [1] deals with T1, human CD28 (human, UniProt P10747 19-152, limits assumed).
T1 construct: also called Cluster of Differentiation 28; Tp44
Briefly: KD of its CD28 binding domain as quoted in the text.

Assay [2] deals with T2, human mesothelin (MSLN) (human, UniProt Q13421 296-580, limits assumed).
T2 construct: Antigen of the Octet KD values
The experiment in a line: KD of its MSLN binding domain as quoted in the text.

In assay [3] the target is T1, human CD28. Briefly: method not stated; Monovalent CD28 KD, table headed 1A7[CD28] H1.14_L1.71 (aka 37 nM).
The target in assay [4] is T2, human mesothelin (MSLN). Briefly: KD quoted in the text; Octet (BLI) per FIGS. 20-21.

B1: XENP39553 (bispecific antibody)
heavy: QVQLVQSGAEVKKPGASVKVSCKASGYTFTSYWMHWVRQAPGQGLEWMGMIHPNSDNTIYYEKFQGRVTMTVDKSISTAYMELSRLRSDDTAVYYCAIIITPVVPKFDYWGQGTLVTVSSASTKGPSVFPLAPSSKSTSGGTAALGCLVKDYFPEPVTVSWNSGALTSGVHTFPAVLQSSGLYSLSSVVTVPSSSLGTQTYICNVNHKPSDTKVDKKVEPKSCDKTHTCPPCPAPPVAGPSVFLFPPKPKDTLMISRTPEVTCVVVDVKHEDPEVKFNWYVDGVEVHNAKTKPREEEYNSTYRVVSVLTVLHQDWLNGKEYKCKVSNKALPAPIEKTISKAKGQPREPQVYTLPPSREEMTKNQVSLTCDVSGFYPSDIAVEWESDGQPENNYKTTPPVLDSDGSFFLYSKLTVDKSRWEQGDVFSCSVLHEALHSHYTQKSLSLSPGK
scFv-Fc: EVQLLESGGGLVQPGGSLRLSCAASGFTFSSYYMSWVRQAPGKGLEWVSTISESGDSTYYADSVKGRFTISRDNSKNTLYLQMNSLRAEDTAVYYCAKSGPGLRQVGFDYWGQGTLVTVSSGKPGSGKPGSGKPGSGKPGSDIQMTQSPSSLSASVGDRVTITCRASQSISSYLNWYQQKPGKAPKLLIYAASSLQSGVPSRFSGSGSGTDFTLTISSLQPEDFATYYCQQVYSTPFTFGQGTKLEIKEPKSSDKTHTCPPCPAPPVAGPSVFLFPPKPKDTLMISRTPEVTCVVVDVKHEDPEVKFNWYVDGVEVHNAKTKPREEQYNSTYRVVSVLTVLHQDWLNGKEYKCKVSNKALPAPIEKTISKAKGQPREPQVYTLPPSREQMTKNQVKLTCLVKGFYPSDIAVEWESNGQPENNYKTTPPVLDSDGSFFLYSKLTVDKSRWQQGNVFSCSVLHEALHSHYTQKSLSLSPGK
light: DIVMTQSPDSLAVSLGERATINCKASHDVGTSVAWYQQKPGQSPKLLIYWASTRHTGVPDRFTGSGSGTDFTLTISSLQAEDVAVYFCQQYSSYPLTFGAGTKLEIKRTVAAPSVFIFPPSDEQLKSGTASVVCLLNNFYPREAKVQWKVDNALQSGNSQESVTEQDSKDSTYSLSSTLTLSKADYEKHKVYACEVTHQGLSSPVTKSFNRGEC
notes: also called MSLN (0.3 nM) x CD28 (37 nM) 1+1 Fab-scFv-Fc
For the molecule B1, the figures for the Kd with human CD28 [1], in the assay with human mesothelin (MSLN) [2] and with human CD28 [3] were 37 nM, 0.3 nM and 60 nM, respectively.

B2: MESO-C H1_L1 (Fab, V domains shown)
VH: QVQLVQSGAEVKKPGASVKVSCKASGYTFTSYWMHWVRQAPGQGLEWMGMIHPNSDNTIYYEKFQGRVTMTVDKSISTAYMELSRLRSDDTAVYYCAIIITPVVPKFDYWGQGTLVTVSS
VL: DIVMTQSPDSLAVSLGERATINCKASHDVGTSVAWYQQKPGQSPKLLIYWASTRHTGVPDRFTGSGSGTDFTLTISSLQAEDVAVYFCQQYSSYPLTFGAGTKLEIK
Molecule B2 displayed an equilibrium dissociation constant (Kd) with human mesothelin (MSLN) [4] of 0.3 nM.

The Kd is the free concentration of one partner at which half of the binding sites on the other are occupied at equilibrium, for simple one-to-one binding. High values mean a looser complex, low ones a tighter complex.
